Data taken from the Immune Epitope Database (IEDB).

Tests used:
HLA-B*48:01 = assay: IEDB peptide-MHC binding, purified MHC/direct/fluorescence; filed as Kd, often an IC50 or EC50 that approximates it; ≥ and ≤ were set here for values at or beyond the usual limits of such assays
HLA-C*14:02 = assay: as above
HLA-A*26:01 [1] = assay: as above
HLA-A*26:02 = assay: as above
HLA-B*15:01 [2] = assay: as above
HLA-B*35:01 = assay: IEDB peptide-MHC binding, purified MHC/competitive/fluorescence; filed as Kd, often an IC50 or EC50 that approximates it; ≥ and ≤ were set here for values at or beyond the usual limits of such assays; conditions: source organism: Mycobacterium tuberculosis H37Rv
HLA-A*26:01 [3] = assay: as above
HLA-A*01:01 [4] = assay: as above
HLA-B*15:01 [5] = assay: as above
HLA-A*03:01 [6] = assay: as above
HLA-B*58:01 [7] = assay: as above; conditions: source organism: Burkholderia orbicola
HLA-A*02:01 = assay: IEDB peptide-MHC binding, purified MHC/direct/fluorescence; filed as Kd, often an IC50 or EC50 that approximates it; ≥ and ≤ were set here for values at or beyond the usual limits of such assays
HLA-B*46:01 [8] = assay: as above; conditions: source organism: Camelpox virus M-96
HLA-B*27:05 = assay: as above
HLA-A*31:01 [9] = assay: as above; conditions: source organism: Camelpox virus M-96
HLA-B*40:01 = assay: as above; conditions: source organism: Camelpox virus M-96
HLA-B*58:01 [10] = assay: as above
HLA-B*15:17 = assay: IEDB peptide-MHC binding, purified MHC/competitive/fluorescence; filed as Kd, often an IC50 or EC50 that approximates it; ≥ and ≤ were set here for values at or beyond the usual limits of such assays; conditions: source organism: Variola virus
HLA-B*57:01 = assay: as above; conditions: source organism: Variola virus
HLA-A*69:01 [11] = assay: as above
HLA-A*11:01 = assay: as above; conditions: source organism: Variola virus
HLA-A*68:01 = assay: IEDB peptide-MHC binding, purified MHC/competitive/radioactivity; filed as Kd, often an IC50 or EC50 that approximates it; ≥ and ≤ were set here for values at or beyond the usual limits of such assays; conditions: source organism: Vaccinia virus WR
HLA-A*33:01 = assay: as above; conditions: source organism: Vaccinia virus WR
HLA-C*06:02 = assay: IEDB peptide-MHC binding, purified MHC/direct/fluorescence; filed as Kd, often an IC50 or EC50 that approximates it; ≥ and ≤ were set here for values at or beyond the usual limits of such assays
HLA-B*39:01 [12] = assay: as above; conditions: source organism: Influenza A virus (A/mallard/Norway/685/05(H9N2))
HLA-A*69:01 [13] = assay: as above; conditions: source organism: Francisella tularensis subsp. holarctica LVS
HLA-A*24:03 = assay: IEDB peptide-MHC binding, purified MHC/competitive/fluorescence; filed as Kd, often an IC50 or EC50 that approximates it; ≥ and ≤ were set here for values at or beyond the usual limits of such assays; conditions: source organism: Francisella tularensis subsp. tularensis FSC198
HLA-A*31:01 [14] = assay: as above; conditions: source organism: Francisella tularensis subsp. tularensis FSC198
HLA-A*02:16 = assay: IEDB peptide-MHC binding, purified MHC/direct/fluorescence; filed as Kd, often an IC50 or EC50 that approximates it; ≥ and ≤ were set here for values at or beyond the usual limits of such assays; conditions: source organism: Calabazo virus
HLA-C*15:02 = assay: as above; conditions: source organism: Orthohantavirus andesense
HLA-A*03:01 [15] = assay: as above
HLA-A*68:02 = assay: as above; conditions: source organism: Calabazo virus
HLA-A*02:03 = assay: as above; conditions: source organism: Calabazo virus
HLA-B*46:01 [16] = assay: IEDB peptide-MHC binding, purified MHC/competitive/fluorescence; filed as Kd, often an IC50 or EC50 that approximates it; ≥ and ≤ were set here for values at or beyond the usual limits of such assays; conditions: source organism: Orthohantavirus andesense
HLA-B*18:01 = assay: as above; conditions: source organism: Orthohantavirus andesense
HLA-B*27:03 = assay: as above; conditions: source organism: Orthohantavirus andesense
HLA-B*51:01 = assay: as above; conditions: source organism: Orthohantavirus andesense
HLA-B*39:01 [17] = assay: as above; conditions: source organism: Orthohantavirus andesense
HLA-B*07:02 = assay: IEDB peptide-MHC binding, purified MHC/direct/fluorescence; filed as Kd, often an IC50 or EC50 that approximates it; ≥ and ≤ were set here for values at or beyond the usual limits of such assays; conditions: source organism: Burkholderia mallei
HLA-A*01:01 [18] = assay: as above; conditions: source organism: Burkholderia mallei
[19] = source organism: Burkholderia orbicola
[20] = source organism: Vibrio cholerae V51
[21] = source organism: Camelpox virus M-96
[22] = source organism: Orthohantavirus andesense
[23] = source organism: Burkholderia mallei ATCC 23344
[24] = source organism: Burkholderia mallei

AAAAFEAAL gave a Kd (HLA-B*48:01; source organism: Mycobacterium tuberculosis str. Haarlem) of 175 nM and a Kd (HLA-C*14:02; [19]) of 166 nM.

AIARGFHFY showed a Kd (HLA-A*26:01 [1]; [20]) of 1070 nM and a Kd (HLA-A*26:02; [20]) of 107 nM.

In the case of AMAAAAAPY, the Kd (HLA-C*14:02; source organism: Mycobacterium tuberculosis H37Rv) is reported as 94 nM, the Kd (HLA-B*15:01 [2]; source organism: Mycobacterium tuberculosis variant bovis BCG str. Pasteur 1173P2) is reported as 294 nM and the Kd (HLA-B*35:01) is reported as 8.3 nM.

ASAAHLAAY was tested, and the Kd (HLA-A*26:01 [3]; [19]) was 775 nM, the Kd (HLA-A*01:01 [4]; [19]) was 23.6 nM and the Kd (HLA-B*15:01 [5]; [19]) was 156 nM. It also gave a Kd (HLA-A*03:01 [6]; [19]) of 700 nM and a Kd (HLA-B*58:01 [7]) of 1260 nM.

ETIEILRNY gave a Kd (HLA-A*26:01 [1]; [21]) of 2.1 nM, a Kd (HLA-A*02:01; [21]) of at least 20000 nM and a Kd (HLA-B*46:01 [8]) of at least 20000 nM. For the same sequence, the Kd (HLA-B*48:01; [21]) was at least 20000 nM, the Kd (HLA-B*27:05; [21]) was at least 20000 nM and the Kd (HLA-A*31:01 [9]) was at least 20000 nM. The Kd (HLA-B*40:01) was at least 20000 nM, the Kd (HLA-B*58:01 [10]; [21]) was at least 20000 nM and the Kd (HLA-B*15:17) was 86.9 nM. It also gave a Kd (HLA-A*01:01 [4]; source organism: Variola virus) of 3600 nM, a Kd (HLA-B*57:01) of 926 nM and a Kd (HLA-A*69:01 [11]; source organism: Variola virus) of at least 20000 nM. The Kd (HLA-A*03:01 [6]; source organism: Variola virus) was 1950 nM, the Kd (HLA-A*11:01) was at least 20000 nM and the Kd (HLA-A*68:01) was 14.6 nM. It also gave a Kd (HLA-A*33:01) of 2140 nM.

For HRTLLMNEL, the Kd (HLA-C*06:02; source organism: Influenza A virus (A/nt/60/1968(H3N2))) was at least 20000 nM and the Kd (HLA-B*39:01 [12]) was at least 20000 nM.

In the case of KYYIYRLYF, the Kd (HLA-A*69:01 [13]) is reported as at least 20000 nM, the Kd (HLA-C*06:02; source organism: Francisella tularensis subsp. tularensis FSC198) is reported as at least 20000 nM and the Kd (HLA-A*24:03) is reported as 0.8 nM. The Kd (HLA-A*31:01 [14]) was at least 20000 nM.

LVFLGPGLY gave a Kd (HLA-A*01:01 [4]; source organism: Homo sapiens) of 221 nM.

For RMMATKDSF, the Kd (HLA-A*02:16) was at least 20000 nM, the Kd (HLA-C*15:02) was at least 20000 nM and the Kd (HLA-C*14:02; [22]) was 157 nM. The Kd (HLA-A*03:01 [15]; source organism: Calabazo virus) was at least 20000 nM, the Kd (HLA-B*58:01 [10]; source organism: Orthohantavirus moroense) was 6.5 nM and the Kd (HLA-A*68:02) was at least 20000 nM. The Kd (HLA-A*02:03) was at least 20000 nM, the Kd (HLA-A*26:01 [3]; [22]) was at least 20000 nM and the Kd (HLA-B*46:01 [16]) was at least 20000 nM. The Kd (HLA-B*18:01) was at least 20000 nM, the Kd (HLA-B*27:03) was at least 20000 nM and the Kd (HLA-B*15:01 [5]; [22]) was 44.1 nM. It also gave a Kd (HLA-B*51:01) of at least 20000 nM, a Kd (HLA-A*69:01 [11]; [22]) of at least 20000 nM and a Kd (HLA-B*39:01 [17]) of at least 20000 nM.

STYQPLPLY was tested, and the Kd (HLA-A*26:01 [1]; [23]) was 39 nM, the Kd (HLA-A*02:01; [24]) was at least 20000 nM and the Kd (HLA-B*07:02) was at least 20000 nM. For the same sequence, the Kd (HLA-B*27:05; [24]) was at least 20000 nM, the Kd (HLA-A*26:02; [23]) was at most 1 nM and the Kd (HLA-A*01:01 [18]) was 971 nM. The Kd (HLA-B*15:01 [2]; [24]) was 24.5 nM, the Kd (HLA-A*03:01 [15]; [24]) was at least 20000 nM and the Kd (HLA-B*58:01 [10]; [24]) was 195 nM.
